# Experiments:
# Assay in all cases: protein microarray
# Details in all cases: Protein microarray binding buffer, salt, pH and temperature not given in the material
# [1] = tested on: Pcs60 (Saccharomyces cerevisiae)
# [2] = tested on: Gcy1 (Saccharomyces cerevisiae)
# [3] = tested on: Mdh3 (Saccharomyces cerevisiae)
# [4] = tested on: She2 (Saccharomyces cerevisiae)
# [5] = tested on: Scp160 (Saccharomyces cerevisiae)
# [6] = tested on: Khd1 (Hek2) (Saccharomyces cerevisiae)
# [7] = tested on: Npl3 (Saccharomyces cerevisiae)
# [8] = tested on: Ydl124w (Saccharomyces cerevisiae)
# [9] = tested on: Rrp5 (Saccharomyces cerevisiae)
substance,measurement,setting,value
ASH1 mRNA,binding signal (normalized mean signal (Cy3); Cy5 89.8),[1],3.7
same,binding signal (normalized mean signal (Cy3); Cy5 19.6),[2],8.9
same,binding signal (normalized mean signal (Cy3); Cy5 60.2),[3],2.9
same,binding signal (normalized mean signal (Cy3); Cy5 17.8),[4],17.1
same,binding signal (normalized mean signal (Cy3); Cy5 117.7),[5],2.9
same,binding signal (normalized mean signal (Cy3); Cy5 24.0),[6],3.4
same,binding signal (normalized mean signal (Cy3); Cy5 153.8),[7],7.1
same,binding signal (normalized mean signal (Cy3); Cy5 14.6),[8],11.9
same,binding signal (normalized mean signal (Cy3); Cy5 14.6),[9],3.8
